Key:
[1] = target: deuterated green fluorescent protein [GFP: P42212]; assay: small-angle neutron scattering (SANS); free protein in solution, about 5 mg/mL in Tris-buffer, h-GFP in D2O and d-GFP in H2O, 2-mm quartz cells, ambient conditions; Rg, P(r) and DAMMIF ab initio reconstruction
[2] = target: hydrogenated green fluorescent protein [GFP: P42212]; assay: as above

Row | stoichiometry N [1] | stoichiometry N [2] | Substance
1 | 2 |  | deuterated green fluorescent protein (from UniProt P42212 2-238) (natural protein)
2 |  | 2 | hydrogenated green fluorescent protein (from UniProt P42212 2-238) (natural protein)
